{
  "source": "paper PMC11002309",
  "test_system": "PBRM1-BD4 WT",
  "assay": "EMSA",
  "settings": "20 uM chosen from titration to approximate EC50; 150 nM DNA, protein 0-50 uM; EMSA: 10.5 mM K3PO4 pH 7 (20 °C), 10 mM KCl, 1% v/v glycerol, 0.2 mM DTT; 1 h on ice; 5% 75:1 native gel in 0.2x TBE, 4 °C",
  "data": [
    {"substance": "Widom 601 DNA", "values": [
      {"measurement": "K half", "value": 20, "unit": "µM"}
    ]}
  ]
}
